From patent US20240309109A1 (MorphoSys, published 2024)
One block for each binder: values may come before it.

Columns and labels:
[1] = biological target: T1, human CD38 Fc-fusion aa 45-300 (human, UniProt P28907 45-300); experiment: SPR (Biacore), Fab on immobilized CD38 Fc-fusion; 54 is the standard deviation (n = 3)
T1 construct: Expressed in HEK293 behind a human Vkappa leader, which is left out here; also called CD38-Fc fusion protein; CD38 Fc-Fusion protein

human CD38 on cells [2] = biological target: T2, human CD38 on cells (human, UniProt P28907 1-300); experiment: FACS Scatchard on RPMI8226 cells, single measurement
T2 construct: The cell that carried CD38 is named under assay in each row; also called CD38 on Raji, RPMI8226, OPM2, CCRF-CEM, human erythrocytes, CD38 CHO-K1 transfectants

human CD38 on cells [3] = biological target: T2, human CD38 on cells; experiment: FACS Scatchard on CCRF-CEM cells, single measurement
human CD38 on cells [4] = biological target: T2, human CD38 on cells; experiment: FACS Scatchard, IgG1 on Raji cells
human CD38 on cells [5] = biological target: T2, human CD38 on cells; experiment: FACS Scatchard on OPM2 cells, mean from 2 measurements
human CD38 on cells [6] = biological target: T2, human CD38 on cells; experiment: FACS Scatchard on OPM2 cells, IgG format
human CD38 on cells [7] = biological target: T2, human CD38 on cells; experiment: cell-based or functional assay
human CD38 on cells [8] = biological target: T2, human CD38 on cells; experiment: FACS Scatchard on OPM2 cells, IgG format; * different experiment
[9] = biological target: T1, human CD38 Fc-fusion aa 45-300; experiment: ELISA on CD38 Fc-fusion protein, IgG format
[10] = biological target: T1, human CD38 Fc-fusion aa 45-300; experiment: SPR (Biacore), Fab format
human CD38 on cells [11] = biological target: T2, human CD38 on cells; experiment: FACS Scatchard on RPMI8226 cells
[12] = biological target: T3, Cynomolgus CD38 on PBMCs (Lymphocytes) (cynomolgus monkey, UniProt Q5VAN0); experiment: FACS, Fab format, cynomolgus lymphocytes (PBMC fraction)
T3 construct: native protein on lymphocytes of the PBMC fraction of whole blood

[13] = biological target: T4, Cynomolgus CD38 on Erythrocytes (cynomolgus monkey, UniProt Q5VAN0); experiment: FACS, Fab format, cynomolgus erythrocytes
T4 construct: native protein on erythrocytes (pellet of the density gradient)

[14] = biological target: CD38 (antigen of the Bioveris affinity determination) (Homo sapiens (Human), UniProt P28907 45-300, limits assumed); experiment: Bioveris, Fab format
[15] = biological target: T1, human CD38 Fc-fusion aa 45-300; experiment: SPR (Biacore), Fab on immobilized CD38 Fc-fusion
[16] = biological target: T4, Cynomolgus CD38 on Erythrocytes; experiment: FACS, Fab format, cynomolgus erythrocytes; column taken from the order of panel A [Continued]
human CD38 on cells [17] = biological target: T2, human CD38 on cells; experiment: FACS Scatchard on RPMI8226 cells; * different experiment
[18] = biological target: T3, Cynomolgus CD38 on PBMCs (Lymphocytes); experiment: FACS, Fab format, cynomolgus lymphocytes (PBMC fraction); column taken from the order of panel A [Continued]
human CD38 on cells [19] = biological target: T2, human CD38 on cells; experiment: FACS Scatchard on RPMI8226 cells, single measurement; RPMI8226 cells, FACS Scatchard; single measurement
human CD38 on cells [20] = biological target: T2, human CD38 on cells; experiment: FACS Scatchard on OPM2 cells, IgG format; * different experiment; OPM2 cells, FACS Scatchard, IgG format; different experiment
human CD38 on cells [21] = biological target: T2, human CD38 on cells; experiment: FACS Scatchard on CCRF-CEM cells, single measurement; CCRF-CEM cells, FACS Scatchard; single measurement
human CD38 on cells [22] = biological target: T2, human CD38 on cells; experiment: FACS Scatchard on OPM2 cells, mean from 2 measurements; OPM2 cells, FACS Scatchard; mean from 2 measurements
[23] = biological target: T1, human CD38 Fc-fusion aa 45-300; experiment: SPR (Biacore), Fab on immobilized CD38 Fc-fusion; 84 taken as the standard deviation (n = 4) by footnote d

B2: MOR03087 IgG1 (antibody, V domains shown)
VH: QVQLVESGGGLVQPGGSLRLSCAASGFTFSSYYMNWVRQAPGKGLEWVSGISGDPSNTYYADSVKGRFTISRDNSKNTLYLQMNSLRAEDTAVYYCARDLPLVYTGFAYWGQGTLVTVSS
VL: DIELTQPPSVSVAPGQTARISCSGDNLRHYYVYWYQQKPGQAPVLVIYGDSKRPSGIPERFSGSNSGNTATLTISGTQAEDEADYYCQTYTGGASLVFGGGTKLTVLG
- EC50 (human CD38 on cells [2]): 6.3 nM
- EC50 (human CD38 on cells [3]): 14.7 nM
- Kd (human CD38 on cells [4]): 5 nM
- EC50 (human CD38 on cells [5]): 17.5 nM
- EC50 (human CD38 on cells [6]): 5.7 nM
- ADCC RPMI8226 EC50 (human CD38 on cells [7]): 0.14 nM
- CDC CHO EC50 (human CD38 on cells [7]): 3.4 nM
- EC50 (human CD38 on cells [8]): 17.4 nM
- ELISA CD38 Fc-Fusion protein (% Reactivity of MOR03087) [9]: 100%

B4: MOR03088 Fab (Fab, V domains shown)
VH: QVQLVESGGGLVQPGGSLRLSCAASGFTFSSYAMNWVRQAPGKGLEWVSGISSWGSSTYYADSVKGRFTISRDNSKNTLYLQMNSLRAEDTAVYYCAREDGSYMTDYFAYWGQGTLVTVSS
VL: DIELTQPPSVSVAPGQTARISCSGDNIGHYYVSWYQQKPGQAPVLVIYSDSNRPSGIPERFSGSNSGNTATLTISGTQAEDEADYYCQSYNGTYVFGGGTKLTVLG
notes: Fab format
- Kd [15]: 95 nM
- binding result [16]: binds
- Kd [10]: 41.4 nM
- EC50 (human CD38 on cells [17]): 24.6 nM
- binding result [18]: binds
- Kd [14]: 2.15 nM

B6: MOR03128 Fab (Fab, V domains shown)
VH: QVQLKESGPALVKPTQTLTLTCTFSGFSLSSSGMSVSWIRQPPGKALEWLARIYSDDSKSYSTSLKTRLTISKDTSKNQVVLTMTNMDPVDTATYYCARAAHWNGPLFDVWGQGTLVTVSS
VL: DIELTQPPSVSVAPGQTARISCSGDNIGHYYAHWYQQKPGQAPVVVIYDDNDRPSGIPERFSGSNSGNTATLTISGTQAEDEADYYCQAYTGDGGRVFGGGTKLTVLG
notes: Fab format
- Kd [23]: 117 nM

The next lines start with the values.

- Kd [1]: 168 nM
B1: MOR03127 Fab (Fab, V domains shown)
VH: QVQLVQSGAEVKKPGESLKISCKGSGYSFSTSWVGWVRQMPGKGLEWMGIIDPDISYTSYSPSFQGQVTISADKSISTAYLQWSSLKASDTAMYYCARYLMGLGYDVWGQGTLVTVSS
VL: DIALTQPASVSGSPGQSITISCTGTSSDVGAINYVSWYQQHPGKAPKLMIYDVNKRPSGVPDRFSGSKSGNTASLTISGLQAEDEADYYCGSYTMQVGSYVFGGGTKLTVLG
notes: Fab format

- Kd [10]: 5.68 nM
- EC50 (human CD38 on cells [11]): 5.37 nM
- binding result [12]: binds
- binding result [13]: binds
- Kd [14]: 0.0488 nM
B3: MOR03087 Fab (Fab, V domains shown)
VH: QVQLVESGGGLVQPGGSLRLSCAASGFTFSSYYMNWVRQAPGKGLEWVSGISGDPSNTYYADSVKGRFTISRDNSKNTLYLQMNSLRAEDTAVYYCARDLPLVYTGFAYWGQGTLVTVSS
VL: DIELTQPPSVSVAPGQTARISCSGDNLRHYYVYWYQQKPGQAPVLVIYGDSKRPSGIPERFSGSNSGNTATLTISGTQAEDEADYYCQTYTGGASLVFGGGTKLTVLG
notes: Fab format

- EC50 (human CD38 on cells [19]): 24.6 nM
- EC50 (human CD38 on cells [20]): 15.3 nM
- EC50 (human CD38 on cells [21]): 25.5 nM
- EC50 (human CD38 on cells [22]): 2.6 nM
- ELISA CD38 Fc-Fusion protein (% Reactivity of MOR03087) [9]: 18%
B5: MOR03088 IgG (antibody, V domains shown)
VH: QVQLVESGGGLVQPGGSLRLSCAASGFTFSSYAMNWVRQAPGKGLEWVSGISSWGSSTYYADSVKGRFTISRDNSKNTLYLQMNSLRAEDTAVYYCAREDGSYMTDYFAYWGQGTLVTVSS
VL: DIELTQPPSVSVAPGQTARISCSGDNIGHYYVSWYQQKPGQAPVLVIYSDSNRPSGIPERFSGSNSGNTATLTISGTQAEDEADYYCQSYNGTYVFGGGTKLTVLG
